Measured values reported in US8465945B2, “Method for production and use of mite group 1 proteins” (Merck Patent GmbH, priority 1999, dated 2013).

Legend:
[1] = system: anti-Der f 1 MAb 6A8 (capture) and anti-Der f 1 MAb 4C1 (detection); test: Monoclonal Capture ELISA; type: binding
Description: (§1) Assays were carried out as follows. A microtiter plate as described in Example 5 was coated overnight at 4° C. with 100 ng/well of anti-Der f 1 protein monoclonal antibody 6A8, denoted herein as anti-Der f 1 MAb 6A8, provided by Dr. Martin Chapman. The plate was washed in the manner described above. The following proteins were then added to wells, having been diluted in Assay Buffer in a 2-fold dilution series, from 0.75 to 50 ng/well: Heska native Derf1, P. pastoris-expressed PDerf1303b, and E. coli-expressed PDerf1303c. After incubation for 1 hour at room temperature, plates were washed as described in Example 5. Then 100 μl per well of a 1:1000 dilution in Assay Buffer of biotinylated anti-Der f 1 monoclonal antibody 4C1, also denoted anti-Der f 1 MAb 4C1, provided by Dr. Martin Chapman, was added for 1 hour at room temperature. Plates were washed, streptavidin-HRP conjugate was added, and plates were developed as described in Example 5.

[2] = system: IgE from mite-allergic or normal human sera; test: ELISA, binding of IgE from human sera to coated Der f 1 proteins or mite extracts, detected with FcεR1α-biotin
[3] = system: IgE from mite-allergic dog sera; test: ELISA, binding of IgE from dog sera to coated Der f 1 proteins or mite extracts, detected with FcεR1α-biotin
Description: Native or recombinant Der f 1 proteins in 100 μl CBC buffer (50 mM sodium carbonate, pH 9.6) were coated onto wells (100 ng per well) of Immulon II microtiter plates (available from Dynex Technologies, Chantilly, Va.) by incubation at 4° C., covered, overnight. Excess fluid was removed and wells were blocked with 200 μl Assay Buffer (4% fetal calf serum (available from Summit Laboratories, Fort Collins, Colo.) in phosphate buffered saline (PBS, recipe in Sambrook, ibid.), plus 0.05% Tween-20 (available from Sigma, St. Louis, Mo.)) for one hour at room temperature. Plates were then washed for 4 cycles on an automatic plate washer (Ultrawash, available from Dynatech Laboratories) using PBS with 0.05% Tween-20. […] Control wells were treated identically except that no serum was added. Plates were then washed as described above. Biotinylated human IgE receptor alpha chain (FcεR1α-biotin) (100 μl of 1.3 ng/ml) prepared as described in U.S. Pat. No. 5,945,294, ibid., was added and incubated for one hour at room temperature. After this incubation, plates were washed as described above. Streptavidin-horseradish peroxidase conjugate (0.5 mg/ml, available from KPL Labs, Gaithersburg, Md.) was added at a 1:5000 dilution in Assay Buffer for one hour at room temperature, after which plates were washed as described above. TMB Peroxidase substrate system, 2 part (available from KPL Labs, #0-76-00), added at 100 μl per well, was used according to the manufacturer's directions. The color reaction was allowed to proceed until good color development was reached (about 10-15 min); then the reaction was stopped with 100 μl per well of 1 M phosphoric acid. Bound IgE was determined by measuring absorbance (Optical Density, or OD) at 450 nm (nanometers) using an ELISA plate reader (such as Spectramax”, Molecular Devices, Sunnyvale, Calif.). Background OD readings in the control wells were subtracted from all numbers. Results are reported in Tables 1, 2 and 3 as OD multiplied by 1000. OD numbers greater than 100 are considered to be positive for a reaction with IgE. P. pastoris-expressed proteins are denoted in the Tables as Pichia expressed proteins.

[4] = system: IgE from pooled mite-allergic human sera; test: Monoclonal Capture ELISA (Example 8B, Table 7); type: binding
Description: as §1
B. The Der f 1 proteins described in Example 8B were reacted as described in Example 6 with a pool of serum samples collected from 16 mite-allergic human patients.

B1: Heska native Derf1: Native purified Der f 1 protein, purified as described in U.S. Ser. No. 09/292,225 (protein)
chain: TSACRINSVNVPSELDLRSLRTVTPIRMQGGCGSCWAFSGVAATESAYLAYRNTSLDLSEQELVDCASQHGCHGDTIPRGIEYIQQNGVVEERSYPYVAREQRCRRPNSQHYGISNYCQIYPPDVKQIREALTQTHTAIAVIIGIKDLRAFQHYDGRTIIQHDNGYQPNYHAVNIVGYGSTQGDDYWIVRNSWDTTWGDSGYGYFQAGNNLMMIEQYPYVVIM
With B1 the “OD, protein captured by MAb 6A8 and detected by MAb 4C1” value (shortened to “OD, protein captured”) ([1]; 0.75 ng protein per well) was 1740 OD, the “OD, protein captured” value ([1]; 1.5 ng protein per well) was 2043 OD and the “OD, protein captured” value ([1]; 2.5 ng protein per well) was 2291 OD. For the same molecule, the “OD, protein captured” value ([1]; 3.1 ng protein per well) was 2219 OD, the “OD, protein captured” value ([1]; 6.25 ng protein per well) was 2197 OD and the “OD, protein captured” value ([1]; 25 ng protein per well) was 2142 OD. For the same molecule, the “OD, protein captured” value ([1]; 50 ng protein per well) was 2183 OD, the “OD, bound IgE” value ([2]; Assay Number 1, serum human 1916) was 51 OD multiplied by 1000 and the “OD, bound IgE” value ([2]; Assay Number 1, serum human3848) was 3123 OD multiplied by 1000. For the same molecule, the “OD, bound IgE” value ([2]; Assay Number 1, serum human 3958) was 3368 OD multiplied by 1000, the “OD, bound IgE” value ([2]; Assay Number 1, serum human 3960) was 2279 OD multiplied by 1000 and the “OD, bound IgE” value ([2]; Assay Number 1, serum human 3961) was 1479 OD multiplied by 1000. The “OD, bound IgE” value ([2]; Assay Number 1, serum human 3987) was 3741 OD multiplied by 1000, the “OD, bound IgE” value ([2]; Assay Number 1, serum human 4289) was 777 OD multiplied by 1000 and the “OD, bound IgE” value ([2]; Assay Number 1, serum human 4467) was 1302 OD multiplied by 1000. The “OD, bound IgE” value ([2]; Assay Number 1, serum human 5207) was 3051 OD multiplied by 1000, the “OD, bound IgE” value ([2]; Assay Number 1, serum human pool) was 1732 OD multiplied by 1000 and the “OD, bound IgE” value ([2]; Assay Number 2, serum Heska human B) was 0 OD multiplied by 1000. For the same molecule, the “OD, bound IgE” value ([2]; Assay Number 2, serum Heska human C) was 0 OD multiplied by 1000, the “OD, bound IgE” value ([2]; Assay Number 2, serum Heska human D) was 0 OD multiplied by 1000 and the “OD, bound IgE” value ([2]; Assay Number 2, serum Heska human E) was 19 OD multiplied by 1000. For the same molecule, the “OD, bound IgE” value ([2]; Assay Number 2, serum Heska human F) was 0 OD multiplied by 1000, the “OD, bound IgE” value ([2]; Assay Number 2, serum Heska human G) was 1 OD multiplied by 1000 and the “OD, bound IgE” value ([2]; Assay Number 2, serum Heska human H) was 0 OD multiplied by 1000. For the same molecule, the “OD, bound IgE” value ([2]; Assay Number 2, serum Heska human I) was 1 OD multiplied by 1000, the “OD, bound IgE” value ([2]; Assay Number 2, serum Heska human J) was 1 OD multiplied by 1000 and the “OD, bound IgE” value ([2]; Assay Number 2, serum Heska human K) was 0 OD multiplied by 1000. For the same molecule, the “OD, bound IgE” value ([2]; Assay Number 2, serum Heska human L) was 0 OD multiplied by 1000, the “OD, bound IgE” value ([2]; Assay Number 2, serum Heska human M) was 51 OD multiplied by 1000 and the “OD, bound IgE” value ([2]; Assay Number 2, serum Heska human N) was 885 OD multiplied by 1000. The “OD, bound IgE” value ([2]; Assay Number 2, serum Heska human O) was 0 OD multiplied by 1000, the “OD, bound IgE” value ([2]; Assay Number 2, serum Heska human P) was 0 OD multiplied by 1000 and the “OD, bound IgE” value ([2]; Assay Number 2, serum Heska human Q) was 0 OD multiplied by 1000. The “OD, bound IgE” value ([2]; Assay Number 2, serum Heska human R) was 1 OD multiplied by 1000, the “OD, bound IgE” value ([2]; Assay Number 2, serum human 1916) was 62 OD multiplied by 1000 and the “OD, bound IgE” value ([2]; Assay Number 2, serum human 3848) was 2362 OD multiplied by 1000. The “OD, bound IgE” value ([2]; Assay Number 2, serum human 3958) was 2235 OD multiplied by 1000, the “OD, bound IgE” value ([2]; Assay Number 2, serum human 3960) was 1308 OD multiplied by 1000 and the “OD, bound IgE” value ([2]; Assay Number 2, serum human 3961) was 784 OD multiplied by 1000. The “OD, bound IgE” value ([2]; Assay Number 2, serum human 3987) was 2664 OD multiplied by 1000, the “OD, bound IgE” value ([2]; Assay Number 2, serum human 4289) was 589 OD multiplied by 1000 and the “OD, bound IgE” value ([2]; Assay Number 2, serum human 4467) was 1051 OD multiplied by 1000. For the same molecule, the “OD, bound IgE” value ([2]; Assay Number 2, serum human 5207) was 2746 OD multiplied by 1000, the “OD, bound IgE” value ([2]; Assay Number 2, serum human pool) was 2599 OD multiplied by 1000 and the “OD, bound IgE” value ([3]; Assay Number 1, serum dog pool) was 750 OD multiplied by 1000. The “OD, bound IgE” value ([3]; Assay Number 1, serum dog-1) was 3 OD multiplied by 1000, the “OD, bound IgE” value ([3]; Assay Number 1, serum dog-2) was 2245 OD multiplied by 1000 and the “OD, bound IgE” value ([3]; Assay Number 1, serum dog-3) was 2839 OD multiplied by 1000. The “OD, bound IgE” value ([3]; Assay Number 2, dog sera pool A 146) was 449 OD multiplied by 1000 and the “OD, bound IgE” value ([3]; Assay Number 2, dog sera pool KS338) was 101 OD multiplied by 1000.

B2: PDerf1303d: P. pastoris HCY288-expressed Der f 1 lacking N-glycosylation site, asparagine 133 replaced by glutamine (SEQ ID NO:38) (protein, listed as Dermatophagoides farinae)
chain: RPASIKTFEEFKKAFNKNYATVEEEEVARKNFLESLKYVEANKGAINHLSDLSLDEFKNRYLMSAEAFEQLKTQFDLNAETSACRINSVNVPSELDLRSLRTVTPIRMQGGCGSCWAFSGVAATESAYLAYRQTSLDLSEQELVDCASQHGCHGDTIPRGIEYIQQNGVVEERSYPYVAREQRCRRPNSQHYGISNYCQIYPPDVKQIREALTQTHTAIAVIIGIKDLRAFQHYDGRTIIQHDNGYQPNYHAVNIVGYGSTQGDDYWIVRNSWDTTWGDSGYGYFQAGNNLMMIEQYPYVVIM
In the case of B2, the “OD, Monoclonal Capture ELISA” value ([4]; 0.39 ng protein per well) is reported as 1380 OD, the “OD, Monoclonal Capture ELISA” value ([4]; 0.78 ng protein per well) is reported as 1963 OD and the “OD, Monoclonal Capture ELISA” value ([4]; 1.55 ng protein per well) is reported as 2626 OD. The “OD, Monoclonal Capture ELISA” value ([4]; 3.1 ng protein per well) was 2913 OD, the “OD, Monoclonal Capture ELISA” value ([4]; 6.25 ng protein per well) was 2991 OD and the “OD, Monoclonal Capture ELISA” value ([4]; 12.5 ng protein per well) was 3037 OD. For the same molecule, the “OD, Monoclonal Capture ELISA” value ([4]; 25 ng protein per well) was 3007 OD, the “OD, bound IgE” value ([2]; Table 6, pool of sera from 16 mite-allergic human patients, 6.2 ng protein per well) was 88 OD and the “OD, bound IgE” value ([2]; Table 6, pool of sera from 16 mite-allergic human patients, 12.5 ng protein per well) was 347 OD. For the same molecule, the “OD, bound IgE” value ([2]; Table 6, pool of sera from 16 mite-allergic human patients, 25 ng protein per well) was 591 OD, the “OD, bound IgE” value ([2]; Table 6, pool of sera from 16 mite-allergic human patients, 50 ng protein per well) was 779 OD and the “OD, bound IgE” value ([2]; Table 6, pool of sera from 16 mite-allergic human patients, 100 ng protein per well) was 1097 OD. The “OD, bound IgE” value ([2]; Table 6, pool of sera from 16 mite-allergic human patients, 200 ng protein per well) was 1448 OD.
